The record followed here is paper PMC4728560, “TCTP contains a BH3-like domain, which instead of inhibiting, activates Bcl-xL” (Scientific Reports, 2016).

The target in the experiment is T1, Bcl-xL, recombinant protein (human, UniProt Q07817-1 1-233).
T1 construct: Bcl-xL, human; also called wild type Bcl-xL; source: purified recombinant protein; host and details in Supplementary Information
As to the kind of experiment: ITC; peptide titrated into Bcl-xL in the cell; 30 °C, 50 mM ammonium bicarbonate pH 9; ITC200 calorimeter. Particulars: both partners purified.

T1 sequence (Q07817 whole entry): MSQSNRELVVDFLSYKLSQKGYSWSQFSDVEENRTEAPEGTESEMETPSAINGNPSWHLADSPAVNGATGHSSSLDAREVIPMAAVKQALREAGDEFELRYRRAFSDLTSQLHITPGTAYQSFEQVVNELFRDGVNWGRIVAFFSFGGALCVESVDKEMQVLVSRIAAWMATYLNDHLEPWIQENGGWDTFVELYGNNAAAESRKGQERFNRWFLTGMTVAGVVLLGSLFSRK

B1: hybrid Bax/TCTP peptide (TCTP BH3 peptide containing the Bax h1 (P1) sub-region) (peptide)
chain: QPPQDASTKKLSECIREIADGLCLEV
Consider B1, for which the dissociation constant Kd was determined as 500 nM.

The Kd is the constant that tells how readily two partners part at equilibrium.
